Source: the supplement of paper PMC7125110
± gives the standard error. For some assays here: This sample holds only a part of the variants without activity.

B1: glmS ribozyme (parent)
chain: AUAAAAGCGCCAGAACUACAGAAAUGUAGUUGACGAGGAGGAGGUUUAUCGAAUUUUCGGCGGAUGCCUCCAAA

Key:
Conditions in all cases: with glucosamine-6-phosphate
[1] = variants of: B1; test: kcat; higher = faster cleavage; RNA array
Summary of the method: (§1)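 On sequenced MiSeq chips, barcoded ribozyme variants were made in situ by E. coli RNA polymerase and followed at 37 °C through a hybridised Cy3 probe. Glucosamine-6-phosphate was flowed in at 40 μM to 10 mM in HEPES/KCl/Mg(OAc)2 buffer. Exponential fits to normalised per-tile medians gave kobs, and weighted Michaelis–Menten fits gave kcat and KM.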

[2] = variants of: B1; test: KM; higher = weaker cofactor use; RNA array
Summary of the method: as §1

[3] = variants of: B1; test: self-cleavage kobs at 640 uM GlcN6P; higher = faster cleavage; RNA array
Summary of the method: as §1

[4] = variants of: B1; test: self-cleavage kobs at 2500 uM GlcN6P; higher = faster cleavage; RNA array
Summary of the method: as §1

[5] = variants of: B1; test: self-cleavage kobs at 10000 uM GlcN6P; higher = faster cleavage; RNA array
Summary of the method: as §1

[6] = variants of: B1; test: self-cleavage kobs at 160 uM GlcN6P; higher = faster cleavage; RNA array
Summary of the method: as §1

[7] = variants of: B1; test: self-cleavage kobs at 40 uM GlcN6P; higher = faster cleavage; RNA array
Summary of the method: as §1

| Variant | kcat [1] [s⁻¹] | KM [2] [mM] | self-cleavage kobs at 640 uM GlcN6P [3] [s⁻¹] | self-cleavage kobs at 2500 uM GlcN6P [4] [s⁻¹] | self-cleavage kobs at 10000 uM GlcN6P [5] [s⁻¹] | self-cleavage kobs at 160 uM GlcN6P [6] [s⁻¹] | self-cleavage kobs at 40 uM GlcN6P [7] [s⁻¹] |
| --- | --- | --- | --- | --- | --- | --- | --- |
| G32A C68U | 0.0003 ± 1.7e-05 | 2.17 ± 0.3 | 7.37e-05 ± 1.1e-05 | 0.000149 ± 1.9e-05 | 0.000251 ± 2e-05 |  |  |
| G32U C70A | 4.97e-05 ± 4.6e-06 |  | 4.67e-05 ± 1.8e-05 | 5.83e-05 ± 1.3e-05 | 4.67e-05 ± 6.5e-06 |  |  |
| G32U C70U | 0.00165 ± 0.00025 | 5.27 ± 1.3 | 0.000182 ± 2.4e-05 | 0.000464 ± 6.3e-05 | 0.00111 ± 8.8e-05 | 7.01e-05 ± 1.6e-05 |  |
| G32A U47C | 0.000343 ± 5.5e-05 | 2.45 ± 0.76 | 7.19e-05 ± 1.5e-05 | 0.000185 ± 2.3e-05 | 0.000258 ± 4.4e-05 |  |  |
| U31C C58A | 0.000146 ± 6.8e-06 | 1.39 ± 0.21 | 5.08e-05 ± 1.5e-05 | 8.99e-05 ± 1.5e-05 | 0.00013 ± 1.5e-05 |  |  |
| G32C C67U | 2.59e-05 ± 7.6e-07 | 0.885 ± 0.19 |  |  | 2.39e-05 ± 5.6e-06 |  |  |
| G32U U56G | 0.00104 ± 0.00031 | 6.41 ± 2.8 | 8.33e-05 ± 1.2e-05 | 0.000317 ± 5e-05 | 0.000633 ± 6.8e-05 | 5.05e-05 ± 1.1e-05 |  |
| G32U A36C | < 1e-05 |  |  | < 1e-05 | < 1e-05 |  |  |
| U31C A52U U65A | < 1e-05 |  |  |  |  |  |  |
| G32A U46G | 0.000631 ± 7.4e-05 | 3.22 ± 0.66 | 9.72e-05 ± 1.8e-05 | 0.000303 ± 5.6e-05 | 0.000468 ± 6.8e-05 |  |  |
| G32A U46C | 0.000236 ± 2.1e-05 | 1.77 ± 0.29 | 6.49e-05 ± 8.9e-06 | 0.000126 ± 2.3e-05 | 0.000209 ± 3.3e-05 |  |  |
| G32A U46A | 0.000607 ± 2.1e-05 |  | 2.22e-05 ± 1.1e-05 | 7.83e-05 ± 2.1e-05 | 0.000226 ± 2.7e-05 |  |  |
| G32U U46G | 0.000316 ± 0.00012 |  | 4.52e-05 ± 1.5e-05 | 6.3e-05 ± 1.1e-05 | 0.000169 ± 2e-05 |  |  |
| G32U U46A | 0.000102 ± 7.4e-06 | 4.1 ± 0.67 |  | 3.94e-05 ± 1.1e-05 | 7.21e-05 ± 1.5e-05 |  |  |
| A33G U49C U57A | 2.2e-05 ± 2.7e-06 |  |  |  |  |  |  |
| G32C U45A | 0.000238 ± 2.8e-05 | 3.69 ± 1 | 2.9e-05 ± 1.3e-05 | 0.000113 ± 2.7e-05 | 0.000171 ± 2.3e-05 |  |  |
| U31G A52U | 8.72e-05 ± 5.4e-06 | 1.52 ± 0.32 |  | 5.7e-05 ± 9.5e-06 | 7.41e-05 ± 1.1e-05 |  | < 1e-05 |

| Variant | kcat [1] [s⁻¹] | KM [2] [mM] | self-cleavage kobs at 640 uM GlcN6P [3] [s⁻¹] | self-cleavage kobs at 2500 uM GlcN6P [4] [s⁻¹] | self-cleavage kobs at 10000 uM GlcN6P [5] [s⁻¹] | self-cleavage kobs at 160 uM GlcN6P [6] [s⁻¹] | self-cleavage kobs at 40 uM GlcN6P [7] [s⁻¹] |
| --- | --- | --- | --- | --- | --- | --- | --- |
| G32U U65A | 0.000104 ± 1.3e-05 | 5.75 ± 1.6 |  |  | 6.61e-05 ± 1.3e-05 | < 1e-05 |  |
| G32U A39U C67G | 0.000203 ± 2.3e-05 | 4.34 ± 1.1 |  | 7.96e-05 ± 1.7e-05 | 0.00014 ± 2e-05 |  | < 1e-05 |
| U31G U47G | 0.00226 ± 0.00055 | 1.88 ± 0.72 | 0.000663 ± 0.00011 | 0.0016 ± 0.00031 | 0.00176 ± 0.00028 | 0.000127 ± 3.3e-05 | 7.25e-05 ± 1.9e-05 |
| U31G G37A | 0.00148 ± 0.00038 | 5.25 ± 1.9 | 0.000144 ± 2.8e-05 | 0.000466 ± 7.3e-05 | 0.000999 ± 0.00019 | 6.42e-05 ± 1.6e-05 |  |
| U31A U54G | 0.0208 ± 0.0046 | 3.52 ± 0.99 | 0.00291 ± 0.00094 | 0.016 ± 0.0066 | 0.0152 ± 0.0024 | 0.00075 ± 0.00015 | 0.00027 ± 3.9e-05 |
| U31C A42U | 1.58e-05 ± 4.1e-06 |  |  |  |  | < 1e-05 | < 1e-05 |
| U31G G37U C68A | 2.76e-05 ± 6.9e-06 |  |  |  |  |  |  |
| U31G G66U U69G | 4.42e-05 ± 1.3e-05 |  |  | 6.07e-05 ± 1.6e-05 |  | 6.31e-05 ± 2.1e-05 |  |
| G32C C70U | 0.000154 ± 1.4e-05 | 2.85 ± 0.8 | 3.89e-05 ± 1.1e-05 | 6.52e-05 ± 1e-05 | 0.000121 ± 7.5e-06 |  |  |
| A33C U57A | 2.16e-05 ± 4.2e-06 |  |  |  |  |  |  |
| G32U U69A | 9.32e-05 ± 6.2e-06 | 0.142 ± 0.064 | 8.92e-05 ± 1.9e-05 | 9.1e-05 ± 1.4e-05 | 8.84e-05 ± 1.1e-05 |  |  |
| U31G A39C | 0.00339 ± 0.0008 | 3.13 ± 1.1 | 0.000584 ± 0.00012 | 0.00195 ± 0.00036 | 0.00236 ± 0.00045 | 0.000147 ± 3.4e-05 |  |
| G32A A39U | 0.00242 ± 0.00045 | 6.09 ± 1.6 | 0.000213 ± 2.9e-05 | 0.000855 ± 0.0001 | 0.00144 ± 0.00017 | 6.05e-05 ± 1.1e-05 |  |
| G32A A39G | 0.00635 ± 0.0016 | 6.19 ± 2 | 0.000619 ± 9.3e-05 | 0.00165 ± 0.0003 | 0.00403 ± 0.00055 | 0.000271 ± 7.2e-05 | 3.65e-05 ± 8.1e-06 |
| G32A G41U A52U | < 1e-05 | 1.01 ± 0.12 | < 1e-05 |  |  |  | < 1e-05 |
| G32A A33G | 1.05e-05 ± 2.6e-06 |  |  |  |  |  | < 1e-05 |
| G32A A33U | 5.7e-05 ± 3e-06 | 4.53 ± 0.7 |  |  | 3.92e-05 ± 6.3e-06 |  |  |
